± gives the standard deviation of the averaged measurements.

The data set deals with Saccharomyces cerevisiae. The experiment in a line: protein stability index of tFT-peptide fusion (C-terminal peptide) (PSI (0-1 scale)); higher = more stable (slower turnover). The conditions noted are these: temperature: 30 C. The method, then: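 MPS profiling in S. cerevisiae of the yeast C-terminome library: the last 12 aa of each annotated ORF are fused to the C-terminus of a sfGFP-mCherry timer, after a GGGS linker. Cells are FACS-sorted into 8 mCherry/sfGFP bins and deep-sequenced. PSI runs from 0 (unstable) to 1 (stable); wild type and das1Δ backgrounds, two technical replicates each.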

The mark [1] stands for this setting: genetic background: das1 deletion.

As to NGRYIDTEFESM [LCB4 C-terminal 12 aa], the protein stability index by setting is: under setting [1], 0.6854 ± 0.0012; (genetic background: wild type) 0.681 ± 0.022.

On to NIRIVNGLQNTR [TIM8 C-terminal 12 aa], for which the protein stability index reads like this: under setting [1], 0.712 ± 0.014; (genetic background: wild type) 0.669 ± 0.011.

Consider NKIANFVKNAKK [TRP1 C-terminal 12 aa], for which the protein stability index is, setting by setting: under setting [1], 0.708 ± 0.02; (genetic background: wild type) 0.701 ± 0.029.

For NKLKTLLAKIFD [IPI1 C-terminal 12 aa], the protein stability index came to 0.708 ± 0.02 under setting [1] and 0.699 ± 0.053 (genetic background: wild type).

With NPGFIVEKRTID [MRPL33 C-terminal 12 aa], the protein stability index is, setting by setting: under setting [1], 0.697 ± 0.035; (genetic background: wild type) 0.737 ± 0.0098.

NPKNLINDVRRT [CVM1 C-terminal 12 aa] yielded a protein stability index under setting [1] of 0.704 ± 0.011 and a protein stability index (genetic background: wild type) of 0.635 ± 0.025.

With NPPISVSVTGDE [SRT1 C-terminal 12 aa], the protein stability index is, setting by setting: under setting [1], 0.687 ± 0.0084; (genetic background: wild type) 0.6978 ± 0.0036.

Turning to NPWGGYSQVQSK [COX5A C-terminal 12 aa], the protein stability index is, setting by setting: under setting [1], 0.728 ± 0.02; (genetic background: wild type) 0.688 ± 0.018.

Sequence NQGSDVSFNEED [TOP2 C-terminal 12 aa] had a protein stability index under setting [1] of 0.709 ± 0.02 and a protein stability index (genetic background: wild type) of 0.685 ± 0.045.

Take NQIIQARLKDLE [DNF3 C-terminal 12 aa]: the protein stability index under setting [1] came out at 0.686 ± 0.021 and the protein stability index (genetic background: wild type) is 0.6964 ± 0.0035.

Turning to NQKKKFKMEFRG [SAP30 C-terminal 12 aa], the protein stability index stood at 0.6956 ± 0.0027 under setting [1] and 0.665 ± 0.0075 (genetic background: wild type).

NRKIARMRHSKR [NUP1 C-terminal 12 aa]: the protein stability index under setting [1] came to 0.706 ± 0.022 and the protein stability index (genetic background: wild type) was 0.7119 ± 0.007.

Sequence NRSSKIVSIRED [CPR8 C-terminal 12 aa] showed a protein stability index under setting [1] of 0.702 ± 0.03 and a protein stability index (genetic background: wild type) of 0.714 ± 0.028.

On to NTDHKAGRSHLQ [PTC2 C-terminal 12 aa], for which the protein stability index worked out at 0.713 ± 0.013 under setting [1] and 0.668 ± 0.038 (genetic background: wild type).

In the case of NTEPPEAPAATN [AFG3 C-terminal 12 aa], the protein stability index runs as follows: under setting [1], 0.73 ± 0.032; (genetic background: wild type) 0.668 ± 0.028.

NTGSKKSVPTSS [AQY3 C-terminal 12 aa] showed a protein stability index under setting [1] of 0.7037 ± 0.0017 and a protein stability index (genetic background: wild type) of 0.732 ± 0.068.

In the case of NTTHYNDTLLKQ [PHO3 C-terminal 12 aa], the protein stability index under setting [1] came out at 0.738 ± 0.0097 and the protein stability index (genetic background: wild type) is 0.6619 ± 0.0058.

Regarding NYLVYHIEEENH [MNN9 C-terminal 12 aa], the protein stability index runs as follows: under setting [1], 0.673 ± 0.031; (genetic background: wild type) 0.645 ± 0.052.

For the sequence PAAWRALTQYIS [PTH1 C-terminal 12 aa], the protein stability index was 0.7186 ± 0.0024 under setting [1] and 0.348 ± 0.029 (genetic background: wild type).

Regarding PCALYFKDHTAY [HUA2 C-terminal 12 aa], the protein stability index reads like this: under setting [1], 0.699 ± 0.021; (genetic background: wild type) 0.7209 ± 0.0011.

Regarding PDDFEFGDDDFM [HCR1 C-terminal 12 aa], the protein stability index under setting [1] worked out at 0.712 ± 0.031 and the protein stability index (genetic background: wild type) came to 0.763 ± 0.041.

As to “PEHPGNKRAGSG [YER145C-A C-terminal 12 aa]”, the protein stability index came to 0.6885 ± 0.00081 under setting [1] and 0.6979 ± 0.0024 (genetic background: wild type).

For the sequence PFDYSDIPAADI [GPI10 C-terminal 12 aa], the protein stability index runs as follows: under setting [1], 0.714 ± 0.023; (genetic background: wild type) 0.698 ± 0.019.

Take PFEDKFEIHDER [OPY2 C-terminal 12 aa]: the protein stability index runs as follows: under setting [1], 0.74255 ± 0.00063; (genetic background: wild type) 0.7692 ± 0.00091.

Turning to PIDPKAFTFDSR [YCL012C C-terminal 12 aa], the protein stability index runs as follows: under setting [1], 0.73549 ± 0.00064; (genetic background: wild type) 0.73 ± 0.016.

With PIQDFIFNLVGE [VTC3 C-terminal 12 aa], the protein stability index runs as follows: under setting [1], 0.687 ± 0.0086; (genetic background: wild type) 0.6981 ± 0.0027.

Turning to PKSFVPRDIEKK [YGR265W C-terminal 12 aa], the protein stability index worked out at 0.695 ± 0.018 under setting [1] and 0.701 ± 0.056 (genetic background: wild type).

Take PLFADYLNKNLN [KTI12 C-terminal 12 aa]: the protein stability index runs as follows: under setting [1], 0.7162 ± 0.0014; (genetic background: wild type) 0.671 ± 0.014.

With PLQWLSTWDIAP [PMT6 C-terminal 12 aa], the protein stability index by setting is: under setting [1], 0.787 ± 0.02; (genetic background: wild type) 0.757 ± 0.021.

On to PLSYDPLGNLIR [TSR3 C-terminal 12 aa], for which the protein stability index runs as follows: under setting [1], 0.7339 ± 0.0027; (genetic background: wild type) 0.728 ± 0.061.

For the sequence PLTLISLLFAFI [YPS1 C-terminal 12 aa], the protein stability index stood at 0.619 ± 0.021 under setting [1] and 0.612 ± 0.0015 (genetic background: wild type).

In the case of PNEFLRDQSTDI [APL5 C-terminal 12 aa], the protein stability index was found to be 0.707 ± 0.031 under setting [1] and 0.66 ± 0.02 (genetic background: wild type).

As for PQCGQVLSKGST [YGL132W C-terminal 12 aa], the protein stability index was found to be 0.703 ± 0.0092 under setting [1] and 0.69 ± 0.063 (genetic background: wild type).

Consider PQMARKQRGHIG [SDS23 C-terminal 12 aa], for which the protein stability index amounted to 0.678 ± 0.024 under setting [1] and 0.681 ± 0.0087 (genetic background: wild type).

For PSGNIVMERLDE [UBX3 C-terminal 12 aa], the protein stability index under setting [1] amounted to 0.6901 ± 0.0013 and the protein stability index (genetic background: wild type) turned out to be 0.64 ± 0.021.

As to PSIARILEFMQS [SAY1 C-terminal 12 aa], the protein stability index is, setting by setting: under setting [1], 0.729 ± 0.013; (genetic background: wild type) 0.654 ± 0.09.

As to PVFTASQLRFAW [ESA1 C-terminal 12 aa], the protein stability index is, setting by setting: under setting [1], 0.738 ± 0.018; (genetic background: wild type) 0.7148 ± 0.0046.

As to PVGAGNEPINPE [URN1 C-terminal 12 aa], the protein stability index is 0.684 ± 0.013 under setting [1] and 0.704 ± 0.074 (genetic background: wild type).

As for “PVTAIALLEARR [YER190C-A C-terminal 12 aa]”, the protein stability index is, setting by setting: under setting [1], 0.6783 ± 0.005; (genetic background: wild type) 0.65 ± 0.01.

As for PYNFIQLLHQGL [HOF1 C-terminal 12 aa], the protein stability index by setting is: under setting [1], 0.725 ± 0.011; (genetic background: wild type) 0.709 ± 0.012.

As for QAYIYIYIHIVN [EST2 C-terminal 12 aa], the protein stability index was 0.195 ± 0.0094 under setting [1] and 0.0717 ± 0.017 (genetic background: wild type).

For QEEEEDVATDSE [YRO2 C-terminal 12 aa], the protein stability index stood at 0.677 ± 0.014 under setting [1] and 0.711 ± 0.034 (genetic background: wild type).

In the case of QEIQKKPSQQVS [BIG1 C-terminal 12 aa], the protein stability index amounted to 0.698 ± 0.0083 under setting [1] and 0.683 ± 0.066 (genetic background: wild type).

As for QFFLAPKFNDEE [POL30 C-terminal 12 aa], the protein stability index is, setting by setting: under setting [1], 0.712 ± 0.032; (genetic background: wild type) 0.705 ± 0.023.

Consider QFQTLNNLYFAQ [IME4 C-terminal 12 aa], for which the protein stability index came to 0.715 ± 0.02 under setting [1] and 0.673 ± 0.044 (genetic background: wild type).

QGHGPVSPSPTK [PTM1 C-terminal 12 aa]: the protein stability index is, setting by setting: under setting [1], 0.701 ± 0.022; (genetic background: wild type) 0.723 ± 0.086.

On to QGPRPGNWDQED [CCT8 C-terminal 12 aa], for which the protein stability index by setting is: under setting [1], 0.7177 ± 0.0017; (genetic background: wild type) 0.678 ± 0.016.

On to QGYKPNQSDRYY [PIN2 C-terminal 12 aa], for which the protein stability index was found to be 0.68 ± 0.013 under setting [1] and 0.711 ± 0.044 (genetic background: wild type).

Take QHYDEYYHELTN [PHO8 C-terminal 12 aa]: the protein stability index by setting is: under setting [1], 0.6964 ± 0.0064; (genetic background: wild type) 0.68262 ± 0.00046.

In the case of QIEWVDINRVTY [RAD50 C-terminal 12 aa], the protein stability index was 0.732 ± 0.014 under setting [1] and 0.735 ± 0.052 (genetic background: wild type).

As for QIFSLPAVTYNK [REC102 C-terminal 12 aa], the protein stability index under setting [1] was determined as 0.693 ± 0.018 and the protein stability index (genetic background: wild type) was 0.743 ± 0.055.

As for QIITISNANSHA [MBP1 C-terminal 12 aa], the protein stability index is, setting by setting: under setting [1], 0.705 ± 0.026; (genetic background: wild type) 0.688 ± 0.038.

Regarding “QKENQYHPRRNQ [YML009W-B C-terminal 12 aa]”, the protein stability index is, setting by setting: under setting [1], 0.7123 ± 0.0032; (genetic background: wild type) 0.691 ± 0.039.

As for QLEEELMDMLDD [FCP1 C-terminal 12 aa], the protein stability index under setting [1] worked out at 0.674 ± 0.01 and the protein stability index (genetic background: wild type) amounted to 0.6692 ± 0.0016.

For the sequence QLESDPPPCDDY [RIM8 C-terminal 12 aa], the protein stability index was 0.7171 ± 0.0053 under setting [1] and 0.689 ± 0.039 (genetic background: wild type).

For the sequence QLKACQEAARQY [MIX17 C-terminal 12 aa], the protein stability index runs as follows: under setting [1], 0.675 ± 0.025; (genetic background: wild type) 0.66 ± 0.031.

QLKKSKVSVELE [MAK11 C-terminal 12 aa]: the protein stability index is, setting by setting: under setting [1], 0.6803 ± 0.0023; (genetic background: wild type) 0.687 ± 0.047.

Turning to QNADEESSSEEE [GCD6 C-terminal 12 aa], the protein stability index worked out at 0.694 ± 0.011 under setting [1] and 0.6858 ± 0.0019 (genetic background: wild type).

Take QNEQLQMLSNSV [ATG31 C-terminal 12 aa]: the protein stability index runs as follows: under setting [1], 0.723 ± 0.028; (genetic background: wild type) 0.673 ± 0.046.

Consider QNLDENVWRTPI [SSP1 C-terminal 12 aa], for which the protein stability index is 0.692 ± 0.011 under setting [1] and 0.672 ± 0.032 (genetic background: wild type).

For QPYRSGTLGKRR [AIR2 C-terminal 12 aa], the protein stability index reads like this: under setting [1], 0.674 ± 0.035; (genetic background: wild type) 0.6998 ± 0.004.

Turning to QREEALISLNDW [REV3 C-terminal 12 aa], the protein stability index worked out at 0.726 ± 0.016 under setting [1] and 0.713 ± 0.025 (genetic background: wild type).

QRELKKVDGTPI [RCI50 C-terminal 12 aa] returned a protein stability index under setting [1] of 0.6851 ± 0.0065 and a protein stability index (genetic background: wild type) of 0.741 ± 0.0098.

Consider QRIKQNNFLSQL [MRPL37 C-terminal 12 aa], for which the protein stability index amounted to 0.7 ± 0.016 under setting [1] and 0.731 ± 0.05 (genetic background: wild type).

On to QSADAAGVVKKH [GCN20 C-terminal 12 aa], for which the protein stability index is 0.683 ± 0.011 under setting [1] and 0.726 ± 0.028 (genetic background: wild type).

As for QSLLDSLAKLQK [NAB3 C-terminal 12 aa], the protein stability index under setting [1] is 0.667 ± 0.009 and the protein stability index (genetic background: wild type) was 0.678 ± 0.022.

For the sequence QSRYDNSRANRR [RAT1 C-terminal 12 aa], the protein stability index by setting is: under setting [1], 0.7257 ± 0.0043; (genetic background: wild type) 0.731 ± 0.099.

Regarding QTNSKPAAVSTN [PLN1 C-terminal 12 aa], the protein stability index reads like this: under setting [1], 0.6745 ± 0.003; (genetic background: wild type) 0.668 ± 0.02.

Source of the values: the supplement of paper PMC10724198.
